The values that follow come from paper PMC6084945, “SURGE complex of Plasmodium falciparum in the rhoptry-neck (SURFIN4.2-RON4-GLURP) contributes to merozoite invasion” (PLoS ONE, 2018).

This data set deals with the molecule itself. Briefly: non-reducing SDS-PAGE; purified recombinant protein eluted from the nickel resin, Coomassie stained gel with and without 2-mercaptoethanol; dimer size band under non-reducing conditions.

B1: recombinant SURFIN4.2 extracellular domain (position 1-746), N-terminal 6x histidine-tagged (domain or fragment)
chain: MLFVVELDSRLEKSADKRISVERFRKIFEIYVEDKLEELKRSGSEKYDKDCRDFNYFIDDVKDVFINNDLVKIPVKVRKSIWETHVDKNLPKLMKNTTSCKCIRKEHNYNKEYRDMTRTLEDFCEEKTRKLEIIYQKDYDESLYVNFNEWINKKKEDILKEYEKLSNKDKYKHLLKISETCDLNHVDKLFLNISSEDMKKMKEDVKKQHLEVKVRPPVNEPIDDRGKEDALSRGGKSIILNKEENSPTEEITTEYNPVSEMGVGTTIAHSEPGPKTVNTEVRNVLRSDGKISDQGSQKSPPKELSNKQMTPAQRKNVPHFVERRGYGNSHVRGNALKKISNGDDNYKSPSSNYIEVDCAEDKYFLLEDGTNQSENSCKTKYNYFVSNDYDGTGSAIYSTDQVPSREEIKSPDSLSTLDARGSTHNLNVSNEGNPLEGGEEKNNVKISEQNGRNLESSVGTDKGSDKNEEEVAATCDPNDRNCFDGRYINVDYIRGLLKGKRSGSDGRSNIKHIISNNFDDSNMIFPTFNFDFDILKAEEEVLPVNNSDIIYGHEEVEETTQEGASIFEKHSHTSSQQNDSSASGNKYRMLSTTMELPNQQEVFGLYSPVSRTLDSAMSFLRSIISLSSAPVSRSEGQSKESKRVEISTTVQDPIGYRTSPLQMNAHSVGAGINVSSILSMLGLSSGQVRRSGGQGSETYIVGTSQSGFHKNEVIPSIKDKSGKTQIVSNEKGGIFSKGITSMMSSL
Broadly, the stoichiometry N is a count of units in the complex or per binding partner. In the case of B1, the “stoichiometry N” value was found to be 2.
